We go through six molecules from patent US20130023423, “TRANSPOSON NUCLEIC ACIDS COMPRISING A CALIBRATION SEQUENCE FOR DNA SEQUENCING” (Finnzymes Oy, published 2013).

Common to all, as to conditions: chain copies: 4
The target of data set [1] is T1, MuA transposase (UniProt P07636 P07636:1-663). Description: EMSA; transpososome complex band about 300 bp; 30 C 1 h, Tris pH 8, EDTA, NaCl, 10% DMSO; complexes fragment gDNA with 10 mM MgCl2 (FIG. 2).
Data set [2] concerns the target T1, MuA transposase. Description: EMSA; worked well in complex formation and gDNA fragmentation; the cited figure shows fragmentation.
The target of data set [3] is T1, MuA transposase. Description: EMSA; worked well in complex formation and gDNA fragmentation (FIG. 4). On the technique in general: A gel shift assay detects complexes by their altered migration in electrophoresis.
For data set [4], the target named is T1, MuA transposase. Nature of the data set: EMSA; complexes formed and active; 30 C 1 h.
Data set [5] has as its target T1, MuA transposase. Nature of the data set: EMSA; no complex formed, no transposition activity; 30 C 1 h.

T1 sequence (P07636 whole entry, the tested form may be a part, one chain of several): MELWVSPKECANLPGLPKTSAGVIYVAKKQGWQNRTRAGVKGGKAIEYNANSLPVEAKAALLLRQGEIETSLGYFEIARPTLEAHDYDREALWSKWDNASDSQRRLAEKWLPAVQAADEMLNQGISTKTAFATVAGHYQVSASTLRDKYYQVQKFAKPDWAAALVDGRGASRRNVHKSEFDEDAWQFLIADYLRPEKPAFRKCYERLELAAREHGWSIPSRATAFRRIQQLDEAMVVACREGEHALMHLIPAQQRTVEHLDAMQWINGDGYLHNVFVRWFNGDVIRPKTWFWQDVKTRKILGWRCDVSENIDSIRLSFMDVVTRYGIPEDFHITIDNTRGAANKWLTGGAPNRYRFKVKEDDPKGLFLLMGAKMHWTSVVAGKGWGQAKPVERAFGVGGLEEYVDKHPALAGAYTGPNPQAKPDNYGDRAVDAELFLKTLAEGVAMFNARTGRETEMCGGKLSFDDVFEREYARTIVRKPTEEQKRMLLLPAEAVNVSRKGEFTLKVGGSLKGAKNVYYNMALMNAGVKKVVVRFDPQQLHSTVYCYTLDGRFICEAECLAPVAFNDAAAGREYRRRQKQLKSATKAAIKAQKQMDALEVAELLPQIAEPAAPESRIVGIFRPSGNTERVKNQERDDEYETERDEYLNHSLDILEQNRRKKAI

B1: native Mu transposon end (dsDNA)
DNA 1: GTTTTCGCATTTATCGTGAAACGCTTTCGCGTTTTTCGTGCGCCGCTTCA
DNA 2: TGAAGCGGCGCACGAAAAACGCGAAAGCGTTTCACGATAAATGCGAAAAC
For the molecule B1, in data set [1], the binding result was “binds”.

B2: Mu end modified at 10th and 11th bases (dsDNA)
DNA 1: GTTTTCGCATTTATCGTGAAACGCTTTCGCGTTTTTCGTCAGCCGCTTCA
DNA 2: TGAAGCGGCTGACGAAAAACGCGAAAGCGTTTCACGATAAATGCGAAAAC
Regarding B2, the binding result in data set [2] is listed as “binds”.

B3: Mu end with internal TCAG key (5th, 6th, 8th bases) (dsDNA)
DNA 1: GTTTTCGCATTTATCGTGAAACGCTTTCGCGTTTTTCGTGCGTCAGTTCA
DNA 2: TGAACTGACGCACGAAAAACGCGAAAGCGTTTCACGATAAATGCGAAAAC
As to B3, the binding result in data set [3] is “binds”.

B4: Mu end with TGCA key (dsDNA)
DNA 1: GTTTTCGCATTTATCGTGAAACGCTTTCGCGTTTTTCGTGCGCCGCTGCA
DNA 2: TGCAGCGGCGCACGAAAAACGCGAAAGCGTTTCACGATAAATGCGAAAAC
Consider B4, for which the binding result in data set [4] was “binds”.

B5: Mu end with 3' TCAG key (dsDNA)
DNA 1: GTTTTCGCATTTATCGTGAAACGCTTTCGCGTTTTTCGTGCGCCGCTCAG
DNA 2: CTGAGCGGCGCACGAAAAACGCGAAAGCGTTTCACGATAAATGCGAAAAC
Consider B5, for which, in data set [5], the binding result is “no binding”.

B6: Mu end with GTCA key (dsDNA)
DNA 1: GTTTTCGCATTTATCGTGAAACGCTTTCGCGTTTTTCGTGCGCCGCGTCA
DNA 2: TGACGCGGCGCACGAAAAACGCGAAAGCGTTTCACGATAAATGCGAAAAC
For the molecule B6, the binding result in data set [4] is on record as “binds”.
